In patent US20240228543:

B1: USP7 catalytic domain (protein)
chain: KKHTGYVGLKNQGATCYMNSLLQTLFFTNQLRKAVYMMPTEGDDSSKSVPLALQRVFYELQHSDKPVGTKKLTKSFGWETLDSFMQHDVQELCRVLLDNVENKMKGTCVEGTIPKLFRGKMVSYIQCKEVDYRSDRREDYYDIQLSIKGKKNIFESFVDYVAVEQLDGDNKYDAGEHGLQEAEKGVKFLTLPPVLHLQLMRFMYDPQTDQNIKINDRFEFPEQLPLDEFLQKTDPKDPANYILHAVLVHSGDNHGGHYVVYLNPKGDGKWCKFDDDVVSRCTKEEAIEHNYGGHDDDLSVRHCTNAYMLVYIRESKLSEVLQAVTDHDIPQQLVERLQEEKRIEAQKRKERQE
ubiquitin-AMC cleavage with 1 µM hD1 (hD1 cyclic peptide): the hD1 peptide had no effect on USP7CD or CYLD activity

B2: CYLD (protein)
chain: MSSGLWSQEKVTSPYWEERIFYLLLQECSVTDKQTQKLLKVPKGSIGQYIQDRSVGHSRIPSAKGKKNQIGLKILEQPHAVLFVDEKDVVEINEKFTELLLAITNCEERFSLFKNRNRLSKGLQIDVGCPVKVQLRSGEEKFPGVVRFRGPLLAERTVSGIFFGVELLEEGRGQGFTDGVYQGKQLFQCDEDCGVFVALDKLELIEDDDTALESDYAGPGDTMQVELPPLEINSRVSLKVGETIESGTVIFCDVLPGKESLGYFVGVDMDNPIGNWDGRFDGVQLCSFACVESTILLHINDIIPALSESVTQERRPPKLAFMSRGVGDKGSSSHNKPKATGSTSDPGNRNRSELFYTLNGSSVDSQPQSKSKNTWYIDEVAEDPAKSLTEISTDFDRSSPPLQPPPVNSLTTENRFHSLPFSLTKMPNTNGSIGHSPLSLSAQSVMEELNTAPVQESPPLAMPPGNSHGLEVGSLAEVKENPPFYGVIRWIGQPPGLNEVLAGLELEDECAGCTDGTFRGTRYFTCALKKALFVKLKSCRPDSRFASLQPVSNQIERCNSLAFGGYLSEVVEENTPPKMEKEGLEIMIGKKKGIQGHYNSCYLDSTLFCLFAFSSVLDTVLLRPKEKNDVEYYSETQELLRTEIVNPLRIYGYVCATKIMKLRKILEKVEAASGFTSEEKDPEEFLNILFHHILRVEPLLKIRSAGQKVQDCYFYQIFMEKNEKVGVPTIQQLLEWSFINSNLKFAEAPSCLIIQMPRFGKDFKLFKKIFPSLELNITDLLEDTPRQCRICGGLAMYECRECYDDPDISAGKIKQFCKTCNTQVHLHPKRLNHKYNPVSLPKDLPDWDWRHGCIPCQNMELFAVLCIETSHYVAFVKYGKDDSAWLFFDSMADRDGGQNGFNIPQVTPCPEVGEYLKMSLEDLHSLDSRRIQGCARRLLCDAYMCMYQSPTMSLYK
ubiquitin-AMC cleavage with 1 µM hD1 (hD1 cyclic peptide): the hD1 peptide had no effect on USP7CD or CYLD activity

B3: USP30 (protein)
chain: TERKKRRKGLVPGLVNLGNTCFMNSLLQGLSACPAFIRWLEEFTSQYSRDQKEPPSHQYLSLTLLHLLKALSCQEVTDDEVLDASCLLDVLRMYRWQISSFEEQDAHELFHVITSSLEDERDRQPRVTHLFDVHSLEQQSEITPKQITCRTRGSPHPTSNHWKSQHPFHGRLTSNMVCKHCEHQSPVRFDTFDSLSLSIPAATWGHPLTLDHCLHHFISSESVRDVVCDNCTKIEAKGTLNGEKVEHQRTTFVKQLKLGKLPQCLCIHLQRLSWSSHGTPLKRHEHVQFNEFLMMDIYKYHLLGHKPSQHNPKLNKNPGPTLELQDGPGAPTPVLNQPGAPKTQIFMNGACSPSLLPTLSAPMPFPLPVVPDYSSSTYLFRLMAVVVHHGDMHSGHFVTYRRSPPSARNPLSTSNQWLWVSDDTVRKASLQEVLSSSAYLLFYERVLSRMQHQSQECKSEE
ubiquitin-AMC cleavage with 1 µM hD1 (hD1 cyclic peptide): only a very modest (˜15%) effect on USP30

B4: USP27x alone (DUBprofiler panel) (protein)
chain: MCKDYVYDKDIEQIAKEEQGEALKLQASTSTEVSHQQCSVPGLGEKFPTWETTKPELELLGHNPRRRRITSSFTIGLRGLINLGNTCFMNCIVQALTHTPILRDFFLSDRHRCEMPSPELCLVCEMSSLFRELYSGNPSPHVPYKLLHLVWIHARHLAGYRQQDAHEFLIAALDVLHRHCKGDDVGKAANNPNHCNCIIDQIFTGGLQSDVTCQACHGVSTTIDPCWDISLDLPGSCTSFWPMSPGRESSVNGESHIPGITTLTDCLRRFTRPEHLGSSAKIKCGSCQSYQESTKQLTMNKLPVVACFHFKRFEHSAKQRRKITTYISFPLELDMTPFMASSKESRMNGQLQLPTNSGNNENKYSLFAVVNHQGTLESGHYTSFIRHHKDQWFKCDDAVITKASIKDVLDSEGYLLFYHKQVLEHESEKVKEMNTQAY
ubiquitin-rhodamine(110)-glycine cleavage with 1 µM hD1 (DUBprofiler) (hD1 cyclic peptide): USP27x, whose activity was reduced by ˜50%

B5: human SAGA deubiquitinating module (USP22/ATXN7L3/ENY2/ATXN7), construct lacking the Avi tag, 6xHis tag cleaved (protein)
chain 1: MVSRPEPEGEAMDAELAVAPPGCSHLGSFKVDNWKQNLRAIYQCFVWSGTAEARKRKAKSCICHVCGVHLNRLHSCLYCVFFGCFTKKHIHEHAKAKRHNLAIDLMYGGIYCFLCQDYIYDKDMEIIAKEEQRKAWKMQGVGEKFSTWEPTKRELELLKHNPKRRKITSNCTIGLRGLINLGNTCFMNCIVQALTHTPLLRDFFLSDRHRCEMQSPSSCLVCEMSSLFQEFYSGHRSPHIPYKLLHLVWTHARHLAGYEQQDAHEFLIAALDVLHRHCKGDDNGKKANNPNHCNCIIDQIFTGGLQSDVTCQVCHGVSTTIDPFWDISLDLPGSSTPFWPLSPGSEGNVVNGESHVSGTTTLTDCLRRFTRPEHLGSSAKIKCSGCHSYQESTKQLTMKKLPIVACFHLKRFEHSAKLRRKITTYVSFPLELDMTPFMASSKESRMNGQYQQPTDSLNNDNKYSLFAVVNHQGTLESGHYTSFIRQHKDQWFKCDDAIITKASIKDVLDSEGYLLFYHKQFLEYE
chain 2: ERAADDVRGEPRRAAAAAGGAAAAAARQQQQQQQQQQPPPPQPQRQQHPPPPPRRTRPEDGGPGAASTSAAAMATVGERRPLPSPEVMLGQSWNLWVEASKLPGKDGTELDESFKEFGKNREVMGLCREDMPIFGFCPAHDDFYLVVCN
chain 3: MKMEEMSLSGLDNSKLEAIAQEIYADLVEDSCLGFCFEVHRAVKCGYFFLDDTDPDSMKDFEIVDQPGLDIFGQVFNQWKSKECVCPNCSRSIAASRFAPHLEKCLGMGRNSSRIANRRIANSNNMNKSESDQEDNDDINDNDWSYGSEKKAKKRKSDKNPNSPRRSKSLKHKNGELSNSDPFKYNNSTGISYETLGPEELRSLLTTQCGVISEHTKKMCTRSLRCPQHTDEQRRTVRIYFLGPSAVLPEVESSLDNDSFDMTDSQALISRLQWDGSSDLSPSDSGSSKTSENQGWGLGTNSSESRKTKKKKSHLSLVGTASGLGSNKKKKPKPPAPPTPSIYDDIN
chain 4: MVVSKMNKDAQMRAAINQKLIETGERERLKELLRAKLIECGWKDQLKAHCKEVIKEKGLEHVTVDDLVAEITPKGRALVPDSVKKELLQRIRTFLAQHASL
Ub-AMC cleavage with 1 µM hD1 (hD1 cyclic peptide): the USP22/DUB module has no detectable activity under these conditions | cleavage of nucleosomal H2B-Ub (200 nM hDUBm, 1 µM peptide) (hD1 cyclic peptide): With the exception of hD4, all of the cyclic peptide leads were potent inhibitors of nucleosomal H2B-Ub cleavage by the human DUB module | cleavage of nucleosomal H2B-Ub (200 nM hDUBm, 1 µM peptide) (hD2 cyclic peptide): With the exception of hD4, all of the cyclic peptide leads were potent inhibitors of nucleosomal H2B-Ub cleavage by the human DUB module | cleavage of nucleosomal H2B-Ub (200 nM hDUBm, 1 µM peptide) (hD3 cyclic peptide): With the exception of hD4, all of the cyclic peptide leads were potent inhibitors of nucleosomal H2B-Ub cleavage by the human DUB module | cleavage of nucleosomal H2B-Ub (200 nM hDUBm, 1 µM peptide) (hD4 cyclic peptide): also showed very weak inhibition of hDUBm on nucleosomal H2B-Ub | cleavage of nucleosomal H2B-Ub (200 nM hDUBm, 1 µM peptide) (hD5 cyclic peptide): With the exception of hD4, all of the cyclic peptide leads were potent inhibitors of nucleosomal H2B-Ub cleavage by the human DUB module | cleavage of nucleosomal H2B-Ub (200 nM hDUBm, 1 µM peptide) (hL1 cyclic peptide): With the exception of hD4, all of the cyclic peptide leads were potent inhibitors of nucleosomal H2B-Ub cleavage by the human DUB module | Ub-AMC cleavage over a range of yD1 concentrations (yD1 cyclic peptide): yD1 also did not inhibit the human DUBm

B6: yeast SAGA DUB module (Ubp8/Sgf11/Sgf73 1-105/Sus1), construct lacking the Avi tag, 6xHis tag cleaved (protein)
chain 1: MSICPHIQQVFQNEKSKDGVLKTCNAARYILNHSVPKEKFLNTMKCGTCHEINSGATFMCLQCGFCGCWNHSHFLSHSKQIGHIFGINSNNGLLFCFKCEDYIGNIDLINDAILAKYWDDVCTKTMVPSMERRDGLSGLINMGSTCFMSSILQCLIHNPYFIRHSMSQIHSNNCKVRSPDKCFSCALDKIVHELYGALNTKQASSSSTSTNRQTGFIYLLTCAWKINQNLAGYSQQDAHEFWQFIINQIHQSYVLDLPNAKEVSRANNKQCECIVHTVFEGSLESSIVCPGCQNNSKTTIDPFLDLSLDIKDKKKLYECLDSFHKKEQLKDFNYHCGECNSTQDAIKQLGIHKLPSVLVLQLKRFEHLLNGSNRKLDDFIEFPTYLNMKNYCSTKEKDKHSENGKVPDIIYELIGIVSHKGTVNEGHYIAFCKISGGQWFKFNDSMVSSISQEEVLKEQAYLLFYTIRQVN
chain 2: MTEETITIDSISNGILNNLLTTLIQDIVARETTQQQLLKTRYPDLRSYYFDPNGSLDINGLQKQQESSQYIHCENCGRDVSANRLAAHLQRCLSRGARR
chain 3: MRSGDAEIKGIKPKVIEEYSLSQGSGPSNDSWKSLMSSAKDTPLQYDHMNRESLKKYFNPNAQLIEDPLDKPIQYRVCEKCGKPLALTAIVDHLENHCAGASGKS
chain 4: MTMDTAQLKSQIQQYLVESGNYELISNELKARLLQEGWVDKVKDLTKSEMNINESTNFTQILSTVEPKALEMVSDSTRETVLKQIREFLEEIVDTQ
Ub-AMC cleavage (yD1 cyclic peptide): yD1 did not inhibit activity of the yeast DUB module | Ub-AMC cleavage, 50 nM yeast DUB module with 2.5 µM yD1 (yD1 cyclic peptide): Rather than inhibition, yD1 produced a slight increase in cleavage rates
